{"source": "patent US20250114463A1", "about": "“LIVER-TARGETED DRUG AND USE THEREOF” (HANMI PHARM. CO., LTD., priority 2021, published 2025)", "binders": {"B1": {"name": "triple agonist of SEQ ID NO: 6 (peptide)", "peptide": "HXQGTFTSDVSSYLDGQAAKEFVAWLLKGC", "HELM": "PEPTIDE1{H.[Aib].Q.G.T.F.T.S.D.V.S.S.Y.L.D.G.Q.A.A.K.E.F.V.A.W.L.L.K.G.C.[am]}$$$$V2.0; N-terminus assumed", "SMILES": "CC(C)C[C@H](NC(=O)[C@H](Cc1c[nH]c2ccccc12)NC(=O)[C@H](C)NC(=O)[C@@H](NC(=O)[C@H](Cc1ccccc1)NC(=O)[C@H](CCC(=O)O)NC(=O)[C@H](CCCCN)NC(=O)[C@H](C)NC(=O)[C@H](C)NC(=O)[C@H](CCC(N)=O)NC(=O)CNC(=O)[C@H](CC(=O)O)NC(=O)[C@H](CC(C)C)NC(=O)[C@H](Cc1ccc(O)cc1)NC(=O)[C@H](CO)NC(=O)[C@H](CO)NC(=O)[C@@H](NC(=O)[C@H](CC(=O)O)NC(=O)[C@H](CO)NC(=O)[C@@H](NC(=O)[C@H](Cc1ccccc1)NC(=O)[C@@H](NC(=O)CNC(=O)[C@H](CCC(N)=O)NC(=O)C(C)(C)NC(=O)[C@@H](N)Cc1c[nH]cn1)[C@@H](C)O)[C@@H](C)O)C(C)C)C(C)C)C(=O)N[C@@H](CC(C)C)C(=O)N[C@@H](CCCCN)C(=O)NCC(=O)N[C@@H](CS)C(N)=O"}}, "note": "Bridges are numbered along the chain shown (N, C = ends). Where no end group is shown, it is not given here. [ ]: non-standard residue; d: D form. Aib = CC(C)(N)C(=O)O", "data": [{"biological_target": "human GLP-1 receptor (human, UniProt P43220 24-463)", "assay": "cell-based or functional assay", "units": {"in vitro Activity Compared to Native Peptide (%), vs GLP-1": "%"}, "values": [{"binder": "H[Aib]QGTFTSDVSSYLLGQQQKEFIAWLVKGGGPSSGAPPPSC-NH2", "note": "[triple agonist of SEQ ID NO: 5]", "in vitro Activity Compared to Native Peptide (%), vs GLP-1": 42.1}, {"binder": "H[Aib]QGTFTSDYSIAMDEIHQKDFVNWLLNTC (bridge 16-20; not fully specified (C-terminus))", "note": "[triple agonist of SEQ ID NO: 57]", "in vitro Activity Compared to Native Peptide (%), vs GLP-1": 11.7}, {"binder": "H[Aib]QGTFTSDYSKYLDEKRQKEFVQWLLNTKC (bridge 16-20; not fully specified (C-terminus))", "note": "[triple agonist of SEQ ID NO: 58]", "in vitro Activity Compared to Native Peptide (%), vs GLP-1": 39.1}, {"binder": "HGQGTFTSDCSKQLDGQAAQEFVAWLLAGGPSSGAPPPS (not fully specified (C-terminus))", "note": "[triple agonist of SEQ ID NO: 44]", "in vitro Activity Compared to Native Peptide (%), vs GLP-1": 1.3}, {"binder": "HGQGTFTSDCSKYLDGQRAQEFVAWLLAGGPSSGAPPPS (not fully specified (C-terminus))", "note": "[triple agonist of SEQ ID NO: 47]", "in vitro Activity Compared to Native Peptide (%), vs GLP-1": 2.4}, {"binder": "HGQGTFTSDCSKYMDGQAAQDFVAWLLAGGPSSGAPPPS (not fully specified (C-terminus))", "note": "[triple agonist of SEQ ID NO: 45]", "in vitro Activity Compared to Native Peptide (%), vs GLP-1": 6.6}, {"binder": "HGQGTFTSDCSKYLDEQHAQEFVAWLLAGGPSSGAPPPS (not fully specified (C-terminus))", "note": "[triple agonist of SEQ ID NO: 46]", "in vitro Activity Compared to Native Peptide (%), vs GLP-1": 1.4}, {"binder": "HGQGTFTSDCSKYLDGQRAQDFVNWLLAGGPSSGAPPPS (not fully specified (C-terminus))", "note": "[triple agonist of SEQ ID NO: 48]", "in vitro Activity Compared to Native Peptide (%), vs GLP-1": 1.5}, {"binder": "H[Aib]QGTFTSDYSKYLDEKRQKEFVQWLLNTC (bridge 16-20; not fully specified (C-terminus))", "note": "[triple agonist of SEQ ID NO: 51]", "in vitro Activity Compared to Native Peptide (%), vs GLP-1": 14.4}, {"binder": "B1", "in vitro Activity Compared to Native Peptide (%), vs GLP-1": 17}]}, {"biological_target": "human GCG receptor (human, UniProt P47871 26-477)", "sequence (P47871 26-477)": "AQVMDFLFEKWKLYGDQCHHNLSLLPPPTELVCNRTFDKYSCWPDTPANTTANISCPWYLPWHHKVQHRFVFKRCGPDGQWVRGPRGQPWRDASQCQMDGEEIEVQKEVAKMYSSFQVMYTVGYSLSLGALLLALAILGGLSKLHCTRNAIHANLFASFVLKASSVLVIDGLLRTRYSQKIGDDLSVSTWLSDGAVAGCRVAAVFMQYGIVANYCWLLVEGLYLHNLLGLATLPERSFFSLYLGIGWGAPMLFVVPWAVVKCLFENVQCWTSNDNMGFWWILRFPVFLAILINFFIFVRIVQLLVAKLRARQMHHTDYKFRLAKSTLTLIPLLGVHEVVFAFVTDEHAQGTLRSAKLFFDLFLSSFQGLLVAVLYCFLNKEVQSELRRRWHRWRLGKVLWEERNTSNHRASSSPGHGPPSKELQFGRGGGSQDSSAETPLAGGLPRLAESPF", "assay": "cell-based or functional assay", "units": {"in vitro Activity Compared to Native Peptide (%), vs Glucagon": "%"}, "values": [{"binder": "H[Aib]QGTFTSDVSSYLLGQQQKEFIAWLVKGGGPSSGAPPPSC-NH2", "note": "[triple agonist of SEQ ID NO: 5]", "in vitro Activity Compared to Native Peptide (%), vs Glucagon": "< 0.1"}, {"binder": "H[Aib]QGTFTSDYSIAMDEIHQKDFVNWLLNTC (bridge 16-20; not fully specified (C-terminus))", "note": "[triple agonist of SEQ ID NO: 57]", "in vitro Activity Compared to Native Peptide (%), vs Glucagon": "< 0.1"}, {"binder": "H[Aib]QGTFTSDYSKYLDEKRQKEFVQWLLNTKC (bridge 16-20; not fully specified (C-terminus))", "note": "[triple agonist of SEQ ID NO: 58]", "in vitro Activity Compared to Native Peptide (%), vs Glucagon": 2.6}, {"binder": "HGQGTFTSDCSKQLDGQAAQEFVAWLLAGGPSSGAPPPS (not fully specified (C-terminus))", "note": "[triple agonist of SEQ ID NO: 44]", "in vitro Activity Compared to Native Peptide (%), vs Glucagon": "< 0.1"}, {"binder": "HGQGTFTSDCSKYLDGQRAQEFVAWLLAGGPSSGAPPPS (not fully specified (C-terminus))", "note": "[triple agonist of SEQ ID NO: 47]", "in vitro Activity Compared to Native Peptide (%), vs Glucagon": "< 0.1"}, {"binder": "HGQGTFTSDCSKYMDGQAAQDFVAWLLAGGPSSGAPPPS (not fully specified (C-terminus))", "note": "[triple agonist of SEQ ID NO: 45]", "in vitro Activity Compared to Native Peptide (%), vs Glucagon": "< 0.1"}, {"binder": "HGQGTFTSDCSKYLDEQHAQEFVAWLLAGGPSSGAPPPS (not fully specified (C-terminus))", "note": "[triple agonist of SEQ ID NO: 46]", "in vitro Activity Compared to Native Peptide (%), vs Glucagon": "< 0.1"}, {"binder": "HGQGTFTSDCSKYLDGQRAQDFVNWLLAGGPSSGAPPPS (not fully specified (C-terminus))", "note": "[triple agonist of SEQ ID NO: 48]", "in vitro Activity Compared to Native Peptide (%), vs Glucagon": "< 0.1"}, {"binder": "H[Aib]QGTFTSDYSKYLDEKRQKEFVQWLLNTC (bridge 16-20; not fully specified (C-terminus))", "note": "[triple agonist of SEQ ID NO: 51]", "in vitro Activity Compared to Native Peptide (%), vs Glucagon": 2}, {"binder": "B1", "in vitro Activity Compared to Native Peptide (%), vs Glucagon": "< 0.1"}]}, {"biological_target": "T1, human GIP receptor (human, UniProt P48546 22-466)", "T1 sequence (looked up)": "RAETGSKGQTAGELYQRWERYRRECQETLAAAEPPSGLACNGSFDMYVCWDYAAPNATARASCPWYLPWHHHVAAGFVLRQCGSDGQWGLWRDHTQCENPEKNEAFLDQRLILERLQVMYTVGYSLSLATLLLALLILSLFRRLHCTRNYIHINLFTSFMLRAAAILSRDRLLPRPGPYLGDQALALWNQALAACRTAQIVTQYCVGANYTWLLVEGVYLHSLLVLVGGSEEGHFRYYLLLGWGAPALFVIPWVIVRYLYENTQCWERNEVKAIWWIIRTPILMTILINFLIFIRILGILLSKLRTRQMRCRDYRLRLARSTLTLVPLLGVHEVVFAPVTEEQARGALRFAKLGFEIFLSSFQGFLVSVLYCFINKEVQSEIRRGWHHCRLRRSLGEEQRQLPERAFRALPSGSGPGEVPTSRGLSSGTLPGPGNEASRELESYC", "assay": "cell-based or functional assay", "units": {"in vitro Activity Compared to Native Peptide (%), vs GIP": "%"}, "values": [{"binder": "H[Aib]QGTFTSDVSSYLLGQQQKEFIAWLVKGGGPSSGAPPPSC-NH2", "note": "[triple agonist of SEQ ID NO: 5]", "in vitro Activity Compared to Native Peptide (%), vs GIP": "< 0.1"}, {"binder": "H[Aib]QGTFTSDYSIAMDEIHQKDFVNWLLNTC (bridge 16-20; not fully specified (C-terminus))", "note": "[triple agonist of SEQ ID NO: 57]", "in vitro Activity Compared to Native Peptide (%), vs GIP": 0.3}, {"binder": "H[Aib]QGTFTSDYSKYLDEKRQKEFVQWLLNTKC (bridge 16-20; not fully specified (C-terminus))", "note": "[triple agonist of SEQ ID NO: 58]", "in vitro Activity Compared to Native Peptide (%), vs GIP": 0.2}, {"binder": "HGQGTFTSDCSKQLDGQAAQEFVAWLLAGGPSSGAPPPS (not fully specified (C-terminus))", "note": "[triple agonist of SEQ ID NO: 44]", "in vitro Activity Compared to Native Peptide (%), vs GIP": "< 0.1"}, {"binder": "HGQGTFTSDCSKYLDGQRAQEFVAWLLAGGPSSGAPPPS (not fully specified (C-terminus))", "note": "[triple agonist of SEQ ID NO: 47]", "in vitro Activity Compared to Native Peptide (%), vs GIP": "< 0.1"}, {"binder": "HGQGTFTSDCSKYMDGQAAQDFVAWLLAGGPSSGAPPPS (not fully specified (C-terminus))", "note": "[triple agonist of SEQ ID NO: 45]", "in vitro Activity Compared to Native Peptide (%), vs GIP": "< 0.1"}, {"binder": "HGQGTFTSDCSKYLDEQHAQEFVAWLLAGGPSSGAPPPS (not fully specified (C-terminus))", "note": "[triple agonist of SEQ ID NO: 46]", "in vitro Activity Compared to Native Peptide (%), vs GIP": "< 0.1"}, {"binder": "HGQGTFTSDCSKYLDGQRAQDFVNWLLAGGPSSGAPPPS (not fully specified (C-terminus))", "note": "[triple agonist of SEQ ID NO: 48]", "in vitro Activity Compared to Native Peptide (%), vs GIP": "< 0.1"}, {"binder": "H[Aib]QGTFTSDYSKYLDEKRQKEFVQWLLNTC (bridge 16-20; not fully specified (C-terminus))", "note": "[triple agonist of SEQ ID NO: 51]", "in vitro Activity Compared to Native Peptide (%), vs GIP": 0.1}, {"binder": "B1", "in vitro Activity Compared to Native Peptide (%), vs GIP": "< 0.1"}]}]}
